± gives the uncertainty stated by the source.

The source of these data is the Human Domainome abundance scans (Beltran et al. 2025).

The nature of this data set: abundance fitness (aPCA) (normalised: wild type 0, dead -1); higher = more abundant; growth selection in yeast, the domain comes from the species named. Particulars: Homo sapiens.
On to “Transcriptional activator Myb T177A, P10242”, for which the abundance fitness is -0.137 ± 0.063.

Turning to “Transcriptional activator Myb T177C, P10242”, the abundance fitness was -0.138 ± 0.075.

On to “Transcriptional activator Myb T177D, P10242”, for which the abundance fitness is 0.077 ± 0.095.

Turning to “Transcriptional activator Myb T177E, P10242”, the abundance fitness was -0.013 ± 0.069.

As for “Transcriptional activator Myb T177F, P10242”, the abundance fitness is -0.79 ± 0.18.

For the substance “Transcriptional activator Myb T177G, P10242”, the abundance fitness is -0.12 ± 0.043.

The substance “Transcriptional activator Myb T177I, P10242” registered an abundance fitness of -0.477 ± 0.093.

Consider “Transcriptional activator Myb T177K, P10242”, for which the abundance fitness is -0.204 ± 0.092.

Substance “Transcriptional activator Myb T177L, P10242” yielded an abundance fitness of -0.42 ± 0.068.

As to “Transcriptional activator Myb T177M, P10242”, the abundance fitness was -0.44 ± 0.093.

As to “Transcriptional activator Myb T177N, P10242”, the abundance fitness is -0.038 ± 0.12.

Regarding “Transcriptional activator Myb T177Q, P10242”, the abundance fitness is -0.183 ± 0.084.

On to “Transcriptional activator Myb T177R, P10242”, for which the abundance fitness was -0.267 ± 0.047.

Substance “Transcriptional activator Myb T177S, P10242” registered an abundance fitness of -0.003 ± 0.066.

Substance “Transcriptional activator Myb T177V, P10242” yielded an abundance fitness of -0.371 ± 0.062.

As to “Transcriptional activator Myb T177W, P10242”, the abundance fitness is -0.533 ± 0.073.

Substance “Transcriptional activator Myb T177Y, P10242” came in with an abundance fitness of -0.558 ± 0.17.

“Transcriptional activator Myb T188A, P10242” gave an abundance fitness of -0.107 ± 0.046.

As to “Transcriptional activator Myb T188C, P10242”, the abundance fitness was -0.037 ± 0.088.

On to “Transcriptional activator Myb T188D, P10242”, for which the abundance fitness is -0.015 ± 0.057.

In turn, “Transcriptional activator Myb T188E, P10242” displayed an abundance fitness of 0.016 ± 0.056.

Turning to “Transcriptional activator Myb T188F, P10242”, the abundance fitness is -0.214 ± 0.14.

In turn, “Transcriptional activator Myb T188G, P10242” yielded an abundance fitness of -0.058 ± 0.032.

On to “Transcriptional activator Myb T188H, P10242”, for which the abundance fitness was -0.093 ± 0.1.

“Transcriptional activator Myb T188I, P10242” yielded an abundance fitness of 0.001 ± 0.092.

On to “Transcriptional activator Myb T188K, P10242”, for which the abundance fitness is -0.115 ± 0.061.

As to “Transcriptional activator Myb T188L, P10242”, the abundance fitness was -0.049 ± 0.053.

Take “Transcriptional activator Myb T188M, P10242”: the abundance fitness was 0.035 ± 0.08.

Substance “Transcriptional activator Myb T188N, P10242” returned an abundance fitness of -0.204 ± 0.11.

As to “Transcriptional activator Myb T188P, P10242”, the abundance fitness is -0.268 ± 0.099.

For “Transcriptional activator Myb T188Q, P10242”, the abundance fitness was -0.089 ± 0.078.

Turning to “Transcriptional activator Myb T188R, P10242”, the abundance fitness was -0.166 ± 0.04.

“Transcriptional activator Myb T188S, P10242” showed an abundance fitness of -0.048 ± 0.053.

“Transcriptional activator Myb T188V, P10242” came in with an abundance fitness of -0.012 ± 0.044.

Take “Transcriptional activator Myb T188W, P10242”: the abundance fitness was -0.093 ± 0.054.

“Transcriptional activator Myb T188Y, P10242” returned an abundance fitness of 0.034 ± 0.13.

Substance “Transcriptional activator Myb V193A, P10242” showed an abundance fitness of -0.074 ± 0.069.

In turn, “Transcriptional activator Myb V193C, P10242” yielded an abundance fitness of -0.138 ± 0.15.

“Transcriptional activator Myb V193D, P10242” returned an abundance fitness of -0.166 ± 0.087.

As to “Transcriptional activator Myb V193E, P10242”, the abundance fitness was -0.138 ± 0.079.

“Transcriptional activator Myb V193F, P10242” had an abundance fitness of -0.091 ± 0.21.

“Transcriptional activator Myb V193G, P10242”: the abundance fitness was -0.041 ± 0.051.

As to “Transcriptional activator Myb V193H, P10242”, the abundance fitness is -0.033 ± 0.13.

For “Transcriptional activator Myb V193I, P10242”, the abundance fitness is -0.066 ± 0.1.

“Transcriptional activator Myb V193K, P10242” had an abundance fitness of -0.154 ± 0.14.

As for “Transcriptional activator Myb V193L, P10242”, the abundance fitness was -0.089 ± 0.089.

Consider “Transcriptional activator Myb V193N, P10242”, for which the abundance fitness is -0.032 ± 0.26.

The substance “Transcriptional activator Myb V193P, P10242” registered an abundance fitness of -0.198 ± 0.14.

For the substance “Transcriptional activator Myb V193Q, P10242”, the abundance fitness was -0.14 ± 0.16.

For “Transcriptional activator Myb V193R, P10242”, the abundance fitness was -0.084 ± 0.059.

“Transcriptional activator Myb V193S, P10242” came in with an abundance fitness of -0.11 ± 0.066.

For “Transcriptional activator Myb V193T, P10242”, the abundance fitness was -0.018 ± 0.11.

“Transcriptional activator Myb V193W, P10242” gave an abundance fitness of -0.075 ± 0.068.

“Transcriptional activator Myb V193Y, P10242” returned an abundance fitness of -0.117 ± 0.23.

On to “Transcriptional activator Myb W147A, P10242”, for which the abundance fitness is -0.681 ± 0.043.

Consider “Transcriptional activator Myb W147C, P10242”, for which the abundance fitness is -0.638 ± 0.042.

“Transcriptional activator Myb W147D, P10242”: the abundance fitness was -0.699 ± 0.052.

With “Transcriptional activator Myb W147E, P10242”, the abundance fitness is -0.563 ± 0.058.

For the substance “Transcriptional activator Myb W147F, P10242”, the abundance fitness was 0.081 ± 0.038.

Substance “Transcriptional activator Myb W147G, P10242” displayed an abundance fitness of -0.699 ± 0.036.

For the substance “Transcriptional activator Myb W147I, P10242”, the abundance fitness is -0.406 ± 0.043.

“Transcriptional activator Myb W147K, P10242” came in with an abundance fitness of -0.674 ± 0.06.

The substance “Transcriptional activator Myb W147L, P10242” registered an abundance fitness of -0.434 ± 0.035.

Regarding “Transcriptional activator Myb W147M, P10242”, the abundance fitness was -0.274 ± 0.048.

Substance “Transcriptional activator Myb W147N, P10242” registered an abundance fitness of -0.65 ± 0.042.

Substance “Transcriptional activator Myb W147P, P10242” came in with an abundance fitness of -0.532 ± 0.052.

Substance “Transcriptional activator Myb W147Q, P10242” came in with an abundance fitness of -0.593 ± 0.055.

In turn, “Transcriptional activator Myb W147R, P10242” showed an abundance fitness of -0.824 ± 0.039.

“Transcriptional activator Myb W147S, P10242”: the abundance fitness was -0.63 ± 0.036.

Take “Transcriptional activator Myb W147T, P10242”: the abundance fitness was -0.542 ± 0.044.

Substance “Transcriptional activator Myb W147V, P10242” gave an abundance fitness of -0.65 ± 0.036.

“Transcriptional activator Myb W147Y, P10242” came in with an abundance fitness of -0.22 ± 0.045.

For “Transcriptional activator Myb W166A, P10242”, the abundance fitness is -0.467 ± 0.097.

Substance “Transcriptional activator Myb W166C, P10242” gave an abundance fitness of -0.566 ± 0.093.

Consider “Transcriptional activator Myb W166D, P10242”, for which the abundance fitness is -0.687 ± 0.15.

Substance “Transcriptional activator Myb W166F, P10242” returned an abundance fitness of -0.474 ± 0.14.

For “Transcriptional activator Myb W166G, P10242”, the abundance fitness is -0.543 ± 0.056.

“Transcriptional activator Myb W166H, P10242” displayed an abundance fitness of -0.455 ± 0.17.

In turn, “Transcriptional activator Myb W166I, P10242” yielded an abundance fitness of -0.834 ± 0.17.

In turn, “Transcriptional activator Myb W166K, P10242” showed an abundance fitness of -0.786 ± 0.2.

Take “Transcriptional activator Myb W166L, P10242”: the abundance fitness was -0.986 ± 0.14.

Consider “Transcriptional activator Myb W166M, P10242”, for which the abundance fitness is -0.708 ± 0.15.

As for “Transcriptional activator Myb W166N, P10242”, the abundance fitness is -0.349 ± 0.2.

“Transcriptional activator Myb W166P, P10242” showed an abundance fitness of -0.359 ± 0.15.

With “Transcriptional activator Myb W166Q, P10242”, the abundance fitness is -0.708 ± 0.1.

“Transcriptional activator Myb W166R, P10242” yielded an abundance fitness of -0.761 ± 0.062.

“Transcriptional activator Myb W166S, P10242”: the abundance fitness was -0.615 ± 0.091.

Turning to “Transcriptional activator Myb W166T, P10242”, the abundance fitness was -0.63 ± 0.11.

Turning to “Transcriptional activator Myb W166V, P10242”, the abundance fitness is -0.615 ± 0.075.

In turn, “Transcriptional activator Myb W166Y, P10242” yielded an abundance fitness of -0.377 ± 0.14.

“Transcriptional activator Myb W185A, P10242” came in with an abundance fitness of -0.736 ± 0.071.

As to “Transcriptional activator Myb W185C, P10242”, the abundance fitness was -0.755 ± 0.12.

“Transcriptional activator Myb W185D, P10242” came in with an abundance fitness of -0.658 ± 0.17.

As to “Transcriptional activator Myb W185E, P10242”, the abundance fitness was -0.614 ± 0.068.

As for “Transcriptional activator Myb W185F, P10242”, the abundance fitness is -0.037 ± 0.075.
